Experimental data reported in patent US20020115596A1 (MERK, published 2002).
Non-standard residues stand in square brackets, D forms with d. Primed or numbered codes have the meaning given here. PEG(2)″ = polyethylene glycol containing substituent with 2 ethyleneoxy subunits; Hyp = O=C(O)[C@@H]1C[C@@H](O)CN1; Chg = N[C@H](C(=O)O)C1CCCCC1; ΔPro = O=C(O)[C@@H]1C=CCN1

Target: free prostate specific antigen (PSA) (human, UniProt P07288 25-261)
Experiment: cell-based or functional assay

{PEG(2)″}-[Hyp]AS[Chg]QSL-OH [PEG(2)-(4-trans-L-Hyp)-ASChgQ-SL-acid]
Time to 50% Substrate Cleavage by PSA (Min); the cell gives the percent cleaved at 3 hours: 44 % cleaved at 3 hours

B1: Ac-(4-trans-L-Hyp)ASChgQ-S(TIC)-acid (peptide)
peptide: XASXQSX
modifications: N-terminal acetyl; 4-trans-L-Hyp (trans-4-hydroxy-L-proline) at position 1 (written X); Chg (cyclohexylglycine) at position 4 (written X); TIC (1,2,3,4-tetrahydro-3-isoquinoline carboxylic acid) at position 7 (written X); C-terminal free acid
Time to 50% Substrate Cleavage by PSA (Min); the cell gives the percent cleaved at 3 hours: 16 % cleaved at 3 hours

B2: Ac-(4-trans-L-Hyp)ChgQ-SSSL-acid (peptide)
peptide: Ac-[Hyp][Chg]QSSSL-OH
SMILES: CC(=O)N1C[C@H](O)C[C@H]1C(=O)N[C@H](C(=O)N[C@@H](CCC(N)=O)C(=O)N[C@@H](CO)C(=O)N[C@@H](CO)C(=O)N[C@@H](CO)C(=O)N[C@@H](CC(C)C)C(=O)O)C1CCCCC1
Time to 50% Substrate Cleavage by PSA (Min); the cell gives the percent cleaved at 3 hours: 0 % cleaved at 3 hours

B3: Ac-(Dehydro-Pro)-ASChgQ-SL-acid (peptide)
peptide: Ac-[ΔPro]AS[Chg]QSL-OH
SMILES: CC(=O)N1CC=C[C@H]1C(=O)N[C@@H](C)C(=O)N[C@@H](CO)C(=O)N[C@H](C(=O)N[C@@H](CCC(N)=O)C(=O)N[C@@H](CO)C(=O)N[C@@H](CC(C)C)C(=O)O)C1CCCCC1
Time to 50% Substrate Cleavage by PSA (Min); the cell gives the percent cleaved at 3 hours: 28 % cleaved at 3 hours
